From patent publication US20210180049A1 (CHUGAI SEIYAKU KABUSHIKI KAISHA, priority 2013, published 2021) come the findings set out here.

Substitutions are numbered along the chain they refer to.

The nature of data set [1]: SPR (Biacore T200) binding of humanized SMB0002 and its variants to adenosine. The settings on record: Biacore T200, 25° C.; read-out: KD of humanized SMB0002 toward adenosine. Here is the method:
(§1) Binding of humanized SMB0002 to adenosine and AMP was measured and analyzed by a method using Biacore T200 (GE Healthcare). Protein A (Invitrogen) immobilized in an appropriate amount onto a Sensor chip CM5 (GE Healthcare) by the amine coupling method was allowed to capture the antibody of interest, and the interaction with the antigen adenosine, AMP, ADP, or ATP was observed. The running buffer used was 50 mM Tris-HCl, 150 mM NaCl, 0.02% (w/v) Tween 20, pH 7.6, for adenosine and AMP, and 50 mM Tris-HCl, 150 mM NaCl, 0.02% (w/v) Tween 20, 2 mM MgCl2, pH 7.6, for ADP and ATP. All measurements were carried out at 25° C. The antigens were diluted with the running buffer.
(§2) Then, the running buffer was run at a flow rate of 30 μL/min for five minutes, and dissociation of the antigens from the antibody was observed. Next, 10 mM glycine-HCl, pH 1.5, was added at a flow rate of 30 μL/min for 30 seconds to regenerate the sensor chip. Kinetic parameters such as the association rate constant ka (1/Ms) and the dissociation rate constant kd (l/s) were calculated based on the sensorgrams obtained by the measurements. The dissociation constant KD (M) was calculated from these constants. Each parameter was calculated using Biacore T200 Evaluation Software (GE Healthcare).
(§3) As a result of the measurements, the affinity of each variant toward adenosine and AMP was calculated as KD value. […]
In general terms: SPR reads the build-up and loss of mass on a sensor chip optically.

Data set [2] in a line: SPR (Biacore T200) binding of humanized SMB0002 and its variants to AMP. The note with it: Biacore T200, 25° C.; read-out: KD of humanized SMB0002 toward AMP. Here is the method: as §1, §2, §3
A short description of data set [3]: SPR (Biacore T200) binding of humanized SMB0002 to ADP. The settings on record: Biacore T200, 25° C., 2 mM MgCl2; read-out: KD of humanized SMB0002 toward ADP. Here is the method: as §1, §2
Data set [4] is described as follows: SPR (Biacore T200) binding of humanized SMB0002 to ATP. The note with it: Biacore T200, 25° C., 2 mM MgCl2; read-out: KD of humanized SMB0002 toward ATP. Here is the method:
as §1, §2

Data set [5] deals with T1, human IL-6 receptor (hIL-6R) (Homo sapiens, UniProt P08887).
T1 sequence (P08887 20-357 limits assumed): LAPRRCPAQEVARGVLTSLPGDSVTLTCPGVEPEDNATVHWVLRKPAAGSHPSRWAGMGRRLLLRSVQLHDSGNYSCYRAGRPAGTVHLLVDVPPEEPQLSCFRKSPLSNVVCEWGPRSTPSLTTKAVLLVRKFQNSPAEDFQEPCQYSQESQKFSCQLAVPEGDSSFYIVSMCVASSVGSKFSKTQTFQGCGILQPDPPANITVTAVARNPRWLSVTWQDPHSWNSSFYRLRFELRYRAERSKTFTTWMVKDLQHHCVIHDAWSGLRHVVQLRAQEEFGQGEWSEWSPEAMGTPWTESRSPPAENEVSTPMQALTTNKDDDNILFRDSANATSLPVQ
The data set is described as follows: phage ELISA for hIL-6R binding in the presence/absence of small molecule cocktail (SC). The settings on record: absorbance at 450 nm. Here is the method:
From a single colony of E. coli obtained in (6-1), a phage-containing culture supernatant was collected according to a conventional method (Methods Mol. Biol. (2002) 178, 133-145). […] A StreptaWell 96 microtiter plate (Roche) was coated overnight with 100 μL of TBS containing biotin-labeled hIL-6R. […] After removing 2% skim milk/TBS, purified phages were added to each well of the plate, and the plate was left still at room temperature for one hour to allow antibody-presenting phages to bind to biotin-labeled hIL-6R present in each well in the presence/absence of SC. Each well was washed with TBST or SC/TBST, and HRP-conjugated anti-M13 antibody (Amersham Pharmacia Biotech) diluted with TBS or SC/TBS was added thereto, and the plate was incubated for one hour. After washing with TBST or SC/TBST, the chromogenic reaction of TMB single solution (ZYMED) added in each well was terminated by adding sulfuric acid. Then, the color development was measured by absorbance at 450 nm.
On the technique in general: ELISA stands for enzyme-linked immunosorbent assay.

Data set [6] concerns the target T1, human IL-6 receptor (hIL-6R). The data set is described as follows: IgG ELISA for hIL-6R binding under small molecule conditions of Table 12. The note with it: IgG 2.5 μg/mL. As to the method: Three types of obtained antibodies 6RNMSC1-2_F02, 6RNMSC1-3_G02, and GC413 were subjected to ELISA under the nine conditions shown in Table 12. The antigen used was biotin-labeled hIL-6R.
First, a StreptaWell 96 microtiter plate (Roche) was coated with 100 μL of PBS containing biotin-labeled hIL-6R at room temperature for one hour or longer. […] 100 μL of each of the purified IgGs prepared at 2.5 μg/mL using Sample Buffer containing small molecules at the final concentrations shown in Table 12 were added to each well, and the plate was let still at room temperature for one hour to allow each IgG to bind to biotin-labeled hIL-6R present in each well. After washing with Wash Buffer containing small molecules at the final concentrations shown in Table 12, HRP-conjugated anti-human IgG antibody (BIOSOURCE) diluted with Sample Buffer containing the same small molecules was added to each well and the plate was incubated for one hour. After washing with Wash Buffer containing respective small molecules, the chromogenic reaction of TMB single solution (ZYMED) added in each well was terminated by adding sulfuric acid. Then, the color development was measured by absorbance at 450 nm.

Data set [7] can be described thus: competitive phage ELISA with ATP. The class given is binding. The note with it: ATP from equal amount up to 10000 times that of the antigen. As to the method:
ATNLSA1-4_D12 and PF1 were each diluted with TBS and subjected to ELISA by the following procedure.
A StreptaWell 96 microtiter plate (Roche) was coated at room temperature for one hour with 100 μl of TBS containing biotin-labeled antigens (a mixture of 5′-adenosine-PEG-biotin and ATP-PEG-biotin). After the antigens were removed by washing each well of the plate with TBST, the wells were blocked with 250 μl of 2% skim milk/TBS for one hour or more. 2% skim milk/TBS was removed, and then the prepared, purified phages were added to each well. The plate was allowed to stand at room temperature for one hour to allow binding of the antibody-displaying phages to the antigens in each well. […] For the competition of the immobilized antigen with ATP, the plate was allowed to stand at room temperature for one hour. Then, after TBST wash, an HRP-conjugated anti-M13 antibody (Amersham Pharmacia Biotech) diluted with TBS was added to each well. The plate was incubated for one hour. Following TBST wash, the TMB single solution (ZYMED) was added to each well. The chromogenic reaction in the solution of each well was terminated by adding sulfuric acid. Then, the developed color was assessed by measuring absorbance at 450 nm.

Data set [8] in a line: SPR (Biacore T200) binding of 6RNMSC1-2_F02 and variants to kynurenine. The note with it: for Kd / ka for kynurenine / kd for kynurenine: Biacore T200, 15° C., 5% DMSO. Here is the method:
An appropriate amount of protein A (Invitrogen) was immobilized onto Sensor chip CM4 (GE Healthcare) by the amine coupling method. The antibody of interest was captured thereon, and the antigen kynurenine and derivatives thereof were allowed to interact. The running buffer used was 50 mmol/L Tris-HCl, 150 mmol/L NaCl, 0.02% (w/v) Tween 20, 5% DMSO, pH 7.6. All measurements were carried out at 15° C. The antigens were diluted with the running buffer.
Then, the running buffer was run at a flow rate of 30 μL/min for 60 seconds to observe the dissociation of antigens from the antibody. Kinetic parameters, the association rate constant ka (1/Ms) and the dissociation rate constant kd (l/s), were calculated based on the sensorgrams obtained by the measurements. The dissociation constant KD (M) was calculated from these constants. Each parameter was calculated using Biacore T200 Evaluation Software (GE Healthcare).
(§4) Meanwhile, the type of sensor chip immobilized with Protein A was changed to Sensor chip Series S CM3 (GE Healthcare) to measure some of the variants. When kynurenine dissociation was too fast to determine the dissociation rate constant, a dissociation constant KD (M) was calculated by analysis of equilibrium values based on the degree of binding response during the interaction with each antigen (association phase). In this case also, Biacore T200 Evaluation Software (GE Healthcare) was used to calculate the parameters.
as §4
When kynurenine dissociation was too fast to determine the dissociation rate constant, the dissociation constant KD (M) was calculated by analysis of equilibrium values based on the degree of binding response when it is interacted with each antigen (association phase). Also in this case, the Biacore T200 Evaluation Software (GE Healthcare) was used to calculate parameters. […] Each variant and its parental antibody F02h011/F021003 were compared in terms of the KD value for kynurenine.
When kynurenine dissociation was too fast to determine the dissociation rate constant, the dissociation constant KD (M) was calculated by analyzing equilibrium values based on the degree of binding response when it is interacted with each antigen (association phase). Also in this case, the Biacore T200 Evaluation Software (GE Healthcare) was used to calculate parameters. […] Each variant and its parental sequence F02h011/F021003 were compared in terms of the KD value for kynurenine.

The nature of data set [9]: Tm measurement by DSC. Background: In DSC, transitions show as peaks or steps in heat flow.
Protocol: Measurement by DSC was carried out by a method known to those skilled in the art.
DSC measurement was carried out by a method known to those skilled in the art.

B1: humanized SMB0002: heavy chain variable region SEQ ID NO: 85; light chain variable region SEQ ID NO: 86 (antibody, V domains shown)
VH: QVQLVQSGAEVKKPGASVKVSCKVSGIDLTNYAMGWVRQPPGKGLEWIGIIGADSSTWYPSWVKGRFTISKDTSKNQVVLTMTNMDPVDTATYYCARGRFVGYTNAFDPWGQGTLVTVSS
VL: DIQLTQSPSSLSASVGDRVTITCQSSQSVWNNNYLSWYQQKPGQPPKLLIYDASTLASGVPSRFSGSGSGTDFTLTINSLEAEDAATYYCHGSYANSGWYDNAFGGGTEVVVK
In the case of B1, the Kd (as a rule, a measure of binding affinity in units of concentration) in [1] was determined as 0.0075 µM; in [2], 35 µM; in [3], 79 µM; in data set [4], 140 µM.

B2: 6RNMSC1-3_G02: antibody binding hIL-6R in the presence of ATP; heavy chain SEQ ID NO: 34, light chain SEQ ID NO: 35 (antibody, listed as Homo sapiens, V domains shown)
VH: EVQLVQSGGDLVKPGGSLRLSCAASGFTFSNYAMHWVRQAPGKGLEWVAVVSYDGSNKYYADSVKGRFTISRDNSKNTLYLQMNSLRAEDTAVYYCARLVPSSGYPGRFDPWGQGTLVTVSS
VL: NIQMTQSPSSLSASVGDRVTITCRASQSISSSLNWYQQIPGKAPKLLIYAASSLQSGVPSRFSGSGSGTDFTLTISSLQPEDFASYYCQQSYSAWTFGQGTKVEIK
As to B2, in [5], the “binding activity to the antigen hIL-6R in the presence of a small molecule mixture” value is “having binding activity”. Also, in data set [6] (absorbance at 450 nm), the “absorbance under condition 9 (no small molecule) compared to condition 8 (cocktail of all small molecules)” value is recorded as “significantly lower”. Moreover, the “small molecule in whose presence the antibody binds hIL-6R” value in data set [6] (conditions 1-9 of Table 12, absorbance at 450 nm) is “binds to the antigen hIL-6R in the presence of ATP”.

B3: PF1: hIL-6R-binding clone prepared as a negative control; heavy chain SEQ ID NO: 50, light chain SEQ ID NO: 51 (antibody, V domains shown)
VH: QVQLQESGPGLVKPSETLSLTCAVSGYSISDDHAWSWVRQPPGEGLEWIGYISYSGITNYNPSLKGRVTISRDTSKNQFSLKLSSVTAADTAAYYCARVLARITAMDYWGEGTLVTVSS
VL: DIQMTQSPSSLSASVGDSVTITCQASQDISSYLNWYQQKPGKAPELLIYYGSELHSGVPSRFSGSGSGTDFTFTISSLEAEDAATYYCGQGNRLPYTFGQGTKVEIE
On to B3, for which the “binding to biotin-labeled antigen with ATP as competitor” value in data set [7] is “not detected regardless of the ATP concentration”.

B4: F02h011/F021003: 6RNMSC1-2_F02 with framework restored to germline; variable regions SEQ ID NO: 95 and 96 (antibody, V domains shown)
VH: QVQLVQSGAEVKKPGSSVKVSCKASGGTFSSYAISWVRQAPGQGLEWMGGIIPIFGTANYAQKFQGRVTITADESTSTAYMELSSLRSEDTAVYYCARDAPVVARPRGAFDIWGQGTLVTVSS
VL: DIVMTQSPLSLPVTPGEPASISCRSSQSLVHSDGNTYLSWYLQKPGQSPQLLIYEISNRFSGVPDRFSGSGSGTDFTLKISRVEAEDVGVYYCMQATQFPRTFGQGTKVEIK
Turning to B4, the “kynurenine binding (in words)” value in [8] (Biacore) is “retain kynurenine binding”. In data set [8], this molecule registered a Kd of 110 µM, a ka for kynurenine of 3664 M⁻¹ s⁻¹ and a kd for kynurenine of 0.40 L/s. Further, the Tm (in general, the temperature at the midpoint of the melting transition) in data set [9] was 85.2 °C.

B5: F02h011/F021098: F02h011/F021003 with Lch_Ser56Tyr; variable regions SEQ ID NO: 95 and 97 (antibody, V domains shown)
VH: B4 VH
VL: B4 VL with S61Y
Take B5: in data set [8], the Kd came out at 72 µM, the ka for kynurenine was determined as 3686 M⁻¹ s⁻¹ and the kd for kynurenine was found to be 0.26 L/s.
